The source of these data is US20180371083A1.

In assay [1] the target is human TIGIT expressed on cells (CHO-K1 transfectants; Jurkat over-expressing human TIGIT) (human) (UniProt Q495A1). The experiment in a line: cell-based or functional assay.
The target in assay [2] is human TIGIT-His protein (extracellular domain of human TIGIT fused to His tag) (human) (UniProt Q495A1). The experiment in a line: SPR, Biacore T200; antibody captured on anti-mouse IgG, human TIGIT-His as analyte; 1:1 Langmuir fit. (In SPR one partner is held on a chip, and binding of the other changes the refractive index at the surface.)

Usually Kd stands for the concentration at which binding is half-saturated.

Chain of human TIGIT-His protein (extracellular domain of human TIGIT fused to His tag) (human) (Q495A1 25-141 limits assumed): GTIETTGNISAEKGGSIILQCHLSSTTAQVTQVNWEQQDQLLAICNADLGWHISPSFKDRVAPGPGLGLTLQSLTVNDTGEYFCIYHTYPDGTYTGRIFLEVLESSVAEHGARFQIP
Chain of human TIGIT expressed on cells (CHO-K1 transfectants; Jurkat over-expressing human TIGIT) (human) (Q495A1 25-244): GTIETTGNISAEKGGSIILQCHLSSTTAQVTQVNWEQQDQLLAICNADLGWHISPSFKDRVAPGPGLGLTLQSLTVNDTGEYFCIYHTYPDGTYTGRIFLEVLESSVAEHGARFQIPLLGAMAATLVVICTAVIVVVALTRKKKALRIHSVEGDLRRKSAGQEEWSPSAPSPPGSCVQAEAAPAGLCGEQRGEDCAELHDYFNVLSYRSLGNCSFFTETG

For “commercial anti-hTIGIT antibody, clone MBSA43 (eBioscience Cat#12-9500-42)”, in assay [1], the EC50, rescue of IL-2 in hTIGIT-Jurkat / THP-1 co-culture with CD155-Fc or CD112-Fc was 0.23 µg/mL. The Kd in assay [2] worked out at 0.0363 nM.
